The subject of the series is Escherichia coli TOP10. The series is described as follows: shrunken log2 fold change of peptide-encoding DNA abundance (4.5 h post-induction vs induction); higher = less antimicrobial activity (less host growth inhibition). The conditions noted are these: time post-induction: 4.5 h; library: site-saturation at positions 5, 18, 19, 20.
For RRIRYRPPRLPRPRPRPTNIPRP, the “shrunken log2 fold change” value is -0.841. RRIRGRPPRLPRPRPRPRHCPRP: the “shrunken log2 fold change” value is 0.764. RRIRWRPPRLPRPRPRPEIEPRP: the “shrunken log2 fold change” value was 0.193. Consider RRIRTRPPRLPRPRPRPATNPRP, for which the “shrunken log2 fold change” value was -0.0241. As for RRIRERPPRLPRPRPRPQNGPRP, the figure is -0.0634.

Consider RRIRMRPPRLPRPRPRPWGPPRP, for which the “shrunken log2 fold change” value was found to be 0.106. Regarding RRIRVRPPRLPRPRPRPAQVPRP, the “shrunken log2 fold change” value was found to be 0.427. With RRIRERPPRLPRPRPRPGSMPRP, the “shrunken log2 fold change” value was -0.343. As for RRIRARPPRLPRPRPRPMNEPRP, the “shrunken log2 fold change” value worked out at 0.374. As for RRIRHRPPRLPRPRPRPDHWPRP, the figure is -0.0694. With RRIRKRPPRLPRPRPRPVHRPRP the figure was -0.0578.

In the case of RRIRSRPPRLPRPRPRPEPAPRP, the “shrunken log2 fold change” value is 0.912. As for RRIRPRPPRLPRPRPRPVERPRP, the figure is 0.289; as for RRIRHRPPRLPRPRPRPWGCPRP, -0.106. RRIRCRPPRLPRPRPRPCHPPRP: the “shrunken log2 fold change” value is -0.348. With RRIRDRPPRLPRPRPRPVKSPRP the figure was -0.00931; with RRIRLRPPRLPRPRPRPLGCPRP, 0.0856. Consider RRIRMRPPRLPRPRPRPPWNPRP, for which the “shrunken log2 fold change” value was found to be 0.369. Consider RRIRDRPPRLPRPRPRPGLEPRP, for which the “shrunken log2 fold change” value turned out to be 1.

Take RRIRLRPPRLPRPRPRPEICPRP: the “shrunken log2 fold change” value was -0.0881. With RRIRTRPPRLPRPRPRPKPGPRP the figure was 0.299; with RRIRQRPPRLPRPRPRPEYNPRP, -0.424. For the sequence RRIRARPPRLPRPRPRPCDNPRP, the “shrunken log2 fold change” value was -0.273. With RRIRIRPPRLPRPRPRPDPWPRP, the “shrunken log2 fold change” value is 0.0621. With RRIRTRPPRLPRPRPRPHDAPRP the figure was -0.0483; with RRIRYRPPRLPRPRPRPAGLPRP, 0.125; with RRIRHRPPRLPRPRPRPVPRPRP, 0.429. Regarding RRIRQRPPRLPRPRPRPMKKPRP, the “shrunken log2 fold change” value came to 0.0152.

Regarding RRIRRRPPRLPRPRPRPKIEPRP, the “shrunken log2 fold change” value is 0.0387. For RRIRCRPPRLPRPRPRPCSPPRP, the “shrunken log2 fold change” value was -0.241.

Turning to RRIRIRPPRLPRPRPRPKGMPRP, the “shrunken log2 fold change” value is -0.214.

Consider RRIRSRPPRLPRPRPRPTVQPRP, for which the “shrunken log2 fold change” value was -0.204. As to RRIRPRPPRLPRPRPRPGFRPRP, the “shrunken log2 fold change” value was found to be 0.138. As for RRIRIRPPRLPRPRPRPAMEPRP, the “shrunken log2 fold change” value was found to be 0.0199. Take RRIRTRPPRLPRPRPRPKQCPRP: the “shrunken log2 fold change” value is -0.00809. As to RRIRNRPPRLPRPRPRPPLQPRP, the “shrunken log2 fold change” value was determined as 0.213. RRIRPRPPRLPRPRPRPDMHPRP: the “shrunken log2 fold change” value was -0.042. RRIRVRPPRLPRPRPRPGYNPRP: the “shrunken log2 fold change” value is -0.193. In the case of RRIRFRPPRLPRPRPRPITRPRP, the “shrunken log2 fold change” value was found to be 0.114. In the case of RRIRFRPPRLPRPRPRPYIYPRP, the “shrunken log2 fold change” value was -0.0532. On to RRIRLRPPRLPRPRPRPQCQPRP, for which the “shrunken log2 fold change” value was -0.399.

RRIRPRPPRLPRPRPRPEWHPRP: the “shrunken log2 fold change” value stood at 1.23. For the sequence RRIRYRPPRLPRPRPRPRHWPRP, the “shrunken log2 fold change” value was 0.272.

Consider RRIRWRPPRLPRPRPRPPMWPRP, for which the “shrunken log2 fold change” value was determined as 0.108. With RRIRPRPPRLPRPRPRPGWSPRP, the “shrunken log2 fold change” value came out at 0.0867. RRIRKRPPRLPRPRPRPWFQPRP: the “shrunken log2 fold change” value was -0.0934. For RRIRFRPPRLPRPRPRPTLGPRP, the “shrunken log2 fold change” value was 0.175. Regarding RRIRERPPRLPRPRPRPQTIPRP, the “shrunken log2 fold change” value was -0.378.

Take RRIRNRPPRLPRPRPRPICKPRP: the “shrunken log2 fold change” value was determined as 0.0454. For RRIRHRPPRLPRPRPRPLSNPRP, the “shrunken log2 fold change” value is -0.174. As for RRIRSRPPRLPRPRPRPYPQPRP, the figure is -0.267. As for RRIRCRPPRLPRPRPRPWLAPRP, the “shrunken log2 fold change” value was -0.298.

With RRIRVRPPRLPRPRPRPKDLPRP, the “shrunken log2 fold change” value was found to be 0.0892. As for RRIRWRPPRLPRPRPRPTFMPRP, the figure is -0.172; as for RRIRPRPPRLPRPRPRPVCTPRP, 0.0082; as for RRIRGRPPRLPRPRPRPVCQPRP, 0.664. With RRIRERPPRLPRPRPRPQTDPRP the figure was -0.323; with RRIRQRPPRLPRPRPRPDWIPRP, -0.035; with RRIRFRPPRLPRPRPRPKFSPRP, -0.0365. Consider RRIRHRPPRLPRPRPRPLIPPRP, for which the “shrunken log2 fold change” value is -0.244.

For the sequence RRIRMRPPRLPRPRPRPYMTPRP, the “shrunken log2 fold change” value is -0.178. For the sequence RRIRLRPPRLPRPRPRPSIWPRP, the “shrunken log2 fold change” value is -0.548. With RRIRGRPPRLPRPRPRPNNFPRP the figure was 0.291; with RRIRWRPPRLPRPRPRPCFLPRP, -0.462; with RRIRARPPRLPRPRPRPWTLPRP, -0.256. With RRIRCRPPRLPRPRPRPRHGPRP, the “shrunken log2 fold change” value is 0.116. For RRIRPRPPRLPRPRPRPTSPPRP, the “shrunken log2 fold change” value is -0.0252.

Consider RRIRARPPRLPRPRPRPCWHPRP, for which the “shrunken log2 fold change” value is 0.134. As to RRIRDRPPRLPRPRPRPFHCPRP, the “shrunken log2 fold change” value was -0.194. For RRIRDRPPRLPRPRPRPINHPRP, the “shrunken log2 fold change” value is -0.229. As for RRIRRRPPRLPRPRPRPATNPRP, the figure is 0.189; as for RRIRGRPPRLPRPRPRPIPNPRP, 0.172; as for RRIRMRPPRLPRPRPRPPHNPRP, 0.767. With RRIRRRPPRLPRPRPRPECQPRP the figure was 0.253; with RRIRVRPPRLPRPRPRPKLRPRP, 0.128; with RRIRWRPPRLPRPRPRPSFTPRP, -0.397. In the case of RRIRSRPPRLPRPRPRPVSEPRP, the “shrunken log2 fold change” value was -0.125.

For RRIRDRPPRLPRPRPRPDRVPRP, the “shrunken log2 fold change” value is -0.0392. For RRIRRRPPRLPRPRPRPILLPRP, the “shrunken log2 fold change” value was -0.149. Turning to RRIRHRPPRLPRPRPRPCWDPRP, the “shrunken log2 fold change” value is 0.0881.

Consider RRIRSRPPRLPRPRPRPFSHPRP, for which the “shrunken log2 fold change” value was -0.388. RRIRTRPPRLPRPRPRPPQRPRP: the “shrunken log2 fold change” value is 0.577.

As to RRIRNRPPRLPRPRPRPVARPRP, the “shrunken log2 fold change” value is 0.23.

For RRIRHRPPRLPRPRPRPEVDPRP, the “shrunken log2 fold change” value is -0.00884.

In the case of RRIRFRPPRLPRPRPRPMIRPRP, the “shrunken log2 fold change” value was -0.163.

In the case of RRIRIRPPRLPRPRPRPLIIPRP, the “shrunken log2 fold change” value is -0.652. As for RRIRDRPPRLPRPRPRPAWRPRP, the “shrunken log2 fold change” value turned out to be 0.812. With RRIRFRPPRLPRPRPRPGQTPRP the figure was 0.0249; with RRIRTRPPRLPRPRPRPDNIPRP, -0.38.

On to RRIRSRPPRLPRPRPRPQQAPRP, for which the “shrunken log2 fold change” value came to 0.0031. As for RRIRMRPPRLPRPRPRPWWMPRP, the “shrunken log2 fold change” value is 0.0885. As for RRIRCRPPRLPRPRPRPLLRPRP, the figure is 0.88; as for RRIRNRPPRLPRPRPRPWNGPRP, -0.368; as for RRIRARPPRLPRPRPRPCPFPRP, -0.154. As to RRIRQRPPRLPRPRPRPAGGPRP, the “shrunken log2 fold change” value came to 0.204. Take RRIRGRPPRLPRPRPRPVNNPRP: the “shrunken log2 fold change” value is -0.0355. On to RRIRMRPPRLPRPRPRPKGGPRP, for which the “shrunken log2 fold change” value worked out at 0.115. Regarding RRIRRRPPRLPRPRPRPACYPRP, the “shrunken log2 fold change” value came to 0.488.

As for RRIRCRPPRLPRPRPRPVKKPRP, the “shrunken log2 fold change” value is 0.0604. With RRIRTRPPRLPRPRPRPMYRPRP, the “shrunken log2 fold change” value is -0.0591.

RRIRMRPPRLPRPRPRPAHQPRP: the “shrunken log2 fold change” value was 0.397. Turning to RRIRVRPPRLPRPRPRPRRDPRP, the “shrunken log2 fold change” value was determined as 0.141.

RRIRQRPPRLPRPRPRPRERPRP: the “shrunken log2 fold change” value came out at 0.553.

In the case of RRIRIRPPRLPRPRPRPIHIPRP, the “shrunken log2 fold change” value is -0.149. RRIRFRPPRLPRPRPRPWSSPRP: the “shrunken log2 fold change” value stood at 0.0276. Take RRIRSRPPRLPRPRPRPGQVPRP: the “shrunken log2 fold change” value is -0.0247. Turning to RRIRERPPRLPRPRPRPFFMPRP, the “shrunken log2 fold change” value was -0.0808. In the case of RRIRPRPPRLPRPRPRPSWWPRP, the “shrunken log2 fold change” value was 0.394. As for RRIRARPPRLPRPRPRPDGPPRP, the figure is 0.455. As for RRIRVRPPRLPRPRPRPLPSPRP, the figure is 0.244; as for RRIRLRPPRLPRPRPRPMIQPRP, -0.139. Take RRIRERPPRLPRPRPRPRVPPRP: the “shrunken log2 fold change” value worked out at 0.425. Turning to RRIRSRPPRLPRPRPRPCAHPRP, the “shrunken log2 fold change” value is -0.235. As for RRIRYRPPRLPRPRPRPVFTPRP, the figure is -0.574; as for RRIRPRPPRLPRPRPRPLGIPRP, -0.0635; as for RRIRPRPPRLPRPRPRPPDMPRP, 0.507. For the sequence RRIRLRPPRLPRPRPRPFECPRP, the “shrunken log2 fold change” value is -0.345. RRIRARPPRLPRPRPRPAMIPRP: the “shrunken log2 fold change” value was determined as 0.0684.

Turning to RRIRHRPPRLPRPRPRPGCRPRP, the “shrunken log2 fold change” value came to 0.704. Consider RRIRWRPPRLPRPRPRPHLPPRP, for which the “shrunken log2 fold change” value was -0.166. Consider RRIRHRPPRLPRPRPRPAVEPRP, for which the “shrunken log2 fold change” value was -0.0419. As for RRIRPRPPRLPRPRPRPHNPPRP, the figure is -0.0801. Regarding RRIRHRPPRLPRPRPRPPGVPRP, the “shrunken log2 fold change” value came to 0.0725.

For the sequence RRIRDRPPRLPRPRPRPDDVPRP, the “shrunken log2 fold change” value was found to be 0.276. Take RRIRFRPPRLPRPRPRPVTWPRP: the “shrunken log2 fold change” value was -0.271.

For the origin of these results see the supplement of paper PMC9112550, “Optimization of the antimicrobial peptide Bac7 by deep mutational scanning” (BMC Biology, 2022).
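Note: peptides expressed intracellularly from a pBAD plasmid library in pooled LB shake-flask culture, induced with 0.3% L-arabinose, DNA abundance read by NGS, three biological replicates, DESeq2 with apeglm shrinkage.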
